Measurements published in paper PMC7864943, “Structural elements in the flexible tail of the co-chaperone p23 coordinate client binding and progression of the Hsp90 chaperone cycle” (Nature Communications, 2021).

Legend:
Conditions in all cases: both partners purified
[1] = biological target: T1, yeast Hsp90 (Hsp82), full length (yeast, UniProt P02829 1-709); assay: ATPase inhibition assay; apparent Ki; ATP-regenerating system, 30 °C; 3 µM yeast Hsp90 (Hsp82) with rising concentrations of p23 or mutants; 40 mM Hepes, 150 mM KCl, 5 mM MgCl2, 1 mM DTT, pH 7.5; 2 mM ATP
T1 construct: Hsp90 (Hsp82), yeast, full-length protein; Isotope-labelled (methyl-labelled, deuterated) in some NMR experiments; also called Hsp90 FL; Hsp90 dimer

[2] = biological target: T2, human Hsp90β, full length (human, UniProt P08238 1-724); assay: NMR titration; 1H-15N HSQC of 15N-labeled p23 with unlabeled full-length Hsp90/AMP-PNP or GR-LBDm alone; peak intensity ratios; 25 mM Tris, 200 mM NaCl, 5 mM DTT, 0.5 mM dexamethasone, pH 7; 30 °C
T2 construct: also called Hsp90 FL (human); source: E. coli BL-21 DE3, purified (the methods speak of Hsp90 and p23 in general)

[3] = biological target: T1, yeast Hsp90 (Hsp82), full length; assay: ITC; 20 µM Hsp90 in the cell, p23^WT (135 µM) or mutants (up to 360 µM) in the syringe; 2 mM AMP-PNP; 40 mM Hepes, 150 mM KCl, 5 mM MgCl2, 1 mM DTT, pH 7.5; 30 °C

T1 sequence (P02829 whole entry): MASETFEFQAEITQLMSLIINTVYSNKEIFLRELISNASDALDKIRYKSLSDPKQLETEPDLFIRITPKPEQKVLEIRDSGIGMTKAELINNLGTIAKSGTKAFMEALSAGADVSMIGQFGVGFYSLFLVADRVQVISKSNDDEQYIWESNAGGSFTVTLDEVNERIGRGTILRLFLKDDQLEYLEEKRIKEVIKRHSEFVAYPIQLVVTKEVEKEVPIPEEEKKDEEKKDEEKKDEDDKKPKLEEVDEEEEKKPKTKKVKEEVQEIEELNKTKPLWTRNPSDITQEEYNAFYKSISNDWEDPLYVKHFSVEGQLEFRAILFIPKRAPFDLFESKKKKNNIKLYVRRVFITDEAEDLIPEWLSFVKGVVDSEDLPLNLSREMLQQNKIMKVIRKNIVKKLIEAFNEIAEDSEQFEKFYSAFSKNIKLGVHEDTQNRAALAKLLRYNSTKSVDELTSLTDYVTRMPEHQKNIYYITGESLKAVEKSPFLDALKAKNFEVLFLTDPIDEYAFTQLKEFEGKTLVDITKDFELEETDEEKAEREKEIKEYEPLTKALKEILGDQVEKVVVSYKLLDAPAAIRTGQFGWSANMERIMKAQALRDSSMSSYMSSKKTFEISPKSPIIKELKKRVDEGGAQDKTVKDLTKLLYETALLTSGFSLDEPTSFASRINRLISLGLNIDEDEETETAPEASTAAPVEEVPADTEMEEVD
T2 sequence (P08238 whole entry): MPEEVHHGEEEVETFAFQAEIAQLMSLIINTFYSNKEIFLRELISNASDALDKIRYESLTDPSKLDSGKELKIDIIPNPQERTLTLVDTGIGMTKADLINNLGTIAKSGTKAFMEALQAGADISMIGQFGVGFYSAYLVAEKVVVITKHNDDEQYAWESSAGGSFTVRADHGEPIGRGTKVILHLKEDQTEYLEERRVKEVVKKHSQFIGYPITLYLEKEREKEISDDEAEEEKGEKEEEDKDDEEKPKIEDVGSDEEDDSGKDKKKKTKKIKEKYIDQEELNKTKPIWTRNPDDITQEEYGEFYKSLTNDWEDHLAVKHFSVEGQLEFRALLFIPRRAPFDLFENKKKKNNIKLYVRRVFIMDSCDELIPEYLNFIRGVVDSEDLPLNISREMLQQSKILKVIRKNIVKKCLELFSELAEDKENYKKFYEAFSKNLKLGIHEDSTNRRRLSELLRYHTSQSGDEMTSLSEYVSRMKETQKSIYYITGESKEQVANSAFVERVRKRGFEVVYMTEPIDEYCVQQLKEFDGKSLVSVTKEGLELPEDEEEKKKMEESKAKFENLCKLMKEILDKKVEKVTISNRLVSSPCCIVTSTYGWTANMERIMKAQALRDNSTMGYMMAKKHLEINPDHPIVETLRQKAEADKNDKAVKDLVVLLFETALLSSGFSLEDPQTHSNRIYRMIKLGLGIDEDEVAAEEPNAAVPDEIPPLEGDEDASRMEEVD

B1: yeast p23^Δ91 (domain or fragment, UniProt P28707 1-125, looked up)
chain: MSDKVINPQVAWAQRSSTTDPERNYVLITVSIADCDAPELTIKPSYIELKAQSKPHVGDENVHHYQLHIDLYKEIIPEKTMHKVANGQHYFLKLYKKDLESEYWPRLTKEKVKYPYIKTDFDKWV
notes: p23/Sba1, yeast, C-terminal deletion mutant Δ91; source: E. coli BL-21 DE3, purified
**Q.** B1 was tested. Which Ki [1] did it give?
**A.** The Ki was 10800 nM.

B2: human p23 (natural protein, UniProt Q15185 1-160, looked up)
chain: MQPASAKWYDRRDYVFIEFCVEDSKDVNVNFEKSKLTFSCLGGSDNFKHLNEIDLFHCIDPNDSKHKRTDRSILCCLRKGESGQSWPRLTKERAKLNWLSVDFNNWKDWEDDSDEDMSNFDRFSEMMNNMGGDEDVDLPEVDGADDDSQDSDDEKMPDLE
notes: p23, human; helical stretch at residues 117-127 of the tail; 15N-labelled; also called p23 (human); source: E. coli BL-21 DE3, purified (the methods speak of Hsp90 and p23 in general)
**Q.** Does B2 bind [2]?
**A.** Result: binds

B3: yeast p23^Δ88 (domain or fragment, UniProt P28707 1-128, looked up)
chain: MSDKVINPQVAWAQRSSTTDPERNYVLITVSIADCDAPELTIKPSYIELKAQSKPHVGDENVHHYQLHIDLYKEIIPEKTMHKVANGQHYFLKLYKKDLESEYWPRLTKEKVKYPYIKTDFDKWVDED
notes: p23/Sba1, yeast, C-terminal deletion mutant Δ88; source: E. coli BL-21 DE3, purified
**Q.** For B3, which Kd [3] is on record?
**A.** Its Kd is 2300 nM.

**Q.** And the Ki [1]?
**A.** Its Ki is 2200 nM.

B4: yeast p23^W124A (natural protein, UniProt P28707 1-216, looked up)
chain: MSDKVINPQVAWAQRSSTTDPERNYVLITVSIADCDAPELTIKPSYIELKAQSKPHVGDENVHHYQLHIDLYKEIIPEKTMHKVANGQHYFLKLYKKDLESEYWPRLTKEKVKYPYIKTDFDKAVDEDEQDEVEAEGNDAAQGMDFSQMMGGAGGAGGAGGMDFSQMMGGAGGAGSPDMAQLQQLLAQSGGNLDMGDFKENDEEDEEEEIEPEVKA
notes: p23/Sba1, yeast, point mutant of the wild type (aa 1-216); source: E. coli BL-21 DE3, purified
**Q.** How did the Kd [3] turn out when B4 was run?
**A.** The Kd was 1300 nM.

**Q.** What about the Ki [1] of the same binder?
**A.** Its Ki is 2600 nM.
